Our source for the protein production values is a protein production outcome set (Wang et al. 2014).

The series can be described thus: label from the status in PepcDB records.

Turning to “MPHNLFSLFSQPLKPPLFEPGEPRFWDDPHISKSMLEAHLNQTHDGASRRNAEIEKTIRHLITSGFLKTGDQVLDLGCGPGLYSSKLCFEGMKVTGIDLSRRSIDYARAQAERDGQNIDYIYTDFFNIDYKETFDAVLQVYGEICTFSDEKRDLLLNLVHRALKDNGIFIFDVSTRELRMREGLKNRWYFSEGGFWRPGKHLVLEEGFDYPENDTWLNQYIIVDEDGTVKVYRLWLHDYSFETISQTLENNGFRVEKAWNNLSGELYQKGGDWIAIAAKKV”, the protein production result was “failed”.

Take “MPHRKNTFSSWRSRLAQKAVHAGWAWVQRTGSVTAAHPGRFRFGALGTGTRLAFPLGTVFGEPWIQVGAHCIIGEQVTLTAGLMPDLDLGPEPILRIGDGVVLGRGSHVIADTTVTIGSDCYFGPYVYVTSTNHSYDDPHQPIGKQWPRMDPVEIGPGCWIGTGAVILPGARIGRNVVVAAGAVVRGAVPDHAVVAGAPARVVRRWTPAEGWQPPLRTPAPVPIPDGITPGQLRELSKLDDEAVARLAELDDPERAAGRLAEPAAEG”: the protein production entry is recorded as “failed”.

“MPIDEWLVLNRIGIFENPSLRRYVSPFPPPELMGITSGLQSETGFAAHGADIYAALALASTIPITEYRHILDFGCGCGRLARMLKGHPHKISGCDIDLRHVKWIGQSLDFMNVKLSSVRPPIPFADDEMDAVISVSIFTHLTENSQDDFLAELFRVTRPGGTLFLTVHGAQALKRACHEQPIRHMLDMDEGRFRKAQQAFNQNKHGFVLQFGHLTTKPEKAFYTPRAIFRRIRDSFSRKTINMPFEYGIAFHPESYIREHWSKWFDILDYRHGAIHQFQDIVVLSPKK”: the protein production result is given as “failed”.

As to “MPIGSAMSRIATSSPGHDALSDRERAVAEKFAAGLTYREIGEALFIAPSTVRTHLASIYDKLGVRNKVALASHINGAIGAGMDGPPRLPGASPVLAIFPIECQTSEERWRRFADGLSSDITIDLARYADLPVIAFHTMKSLGSKPADFAADGKALGATYVVSGQLRADERRVRLSIELADADNGVSLWSERYDRQVEDIFALQDSLTETVINVIAGSYGALATVGRKAIRRKPPASLRAYDCYLLGVEQQDTFSRAGIAEAIRLFSRALELDPTLVRAWTALAYAYSIEGANGFGDDAQVSIENWRTAVENAILLDPMDSVACNCLGDLRGCLGDLEGAERAYRRAFEYGSNHADTLAMLAGSKALVAGDPAEAMPLIERAMHLNPLAPPWYFGMLGRILFTLGRHREAIAALCRSTLNSPNVLLFLALAHTSVGEAAEAARIEARLKTEFADFSVERFITCYPVTNPDAVHAIRHAAQQLARRD”, the protein production entry is “failed”.

Consider “MPIIELVILLACLVLLSNVLSHYLVAIPVSLIQVGLGLGVALLLNVQVKLQTDWFMLVFIAPMLYNDGREFPKQELWELRGAIFANAIVLVFITTILGGFLIHVLIPTIPLAVGIALAAILSPTDPIAVQSISEGVKLPKEILHLVSGESLINDASGLIGFKYALAAAVTGTFVLGEAVGDFFYISLVGLAVGLALITIIQLIRDVLRREGINDIVFNVVLQILTPFAIYFIAEEWFHASGVVAVVAAGVLSHLQNSHESEDAPELRLVTERVWNVVVYLLNGIVFLILGIELPAATQATIKGAHTNTFHAVFDVLIVWGILLLIRVAWTYAYMLFNWLRHHKKAKPSLRIAALSGLSGVRGAITMAGVFTIPTVVASGKAFPERALVLFIAAGVIIVSLVAAAAILPLMAAKSLPFVTRGSSPDEDDAVLAEGTDDGDDSSGQLPQLTYKQARIYILQLAIQNIEEHRRPANQRAAYDLILDQQFQIRRLEVASQTADELAPMLTDELELRLVALNGERAAVREMIANKQTSKLAGQVYLRRVDRREQRFLQATHRQGLPTLRSLRLLLTRAMQGIRLWLAPGDSEELRVALLDIQREASKAAIKALSQYLKQANVDEQQFDRQALYHLIVHYRNRIENAKNDHTLSRDDYEQQLHGLRIKSLGAERAGVQHLLESGQISLRTAAKLRQFINYSENLLMLNDIEADED”, for which the protein production entry is on record as “failed”.

Consider “MPIIKTLTKATKLEKEKFTIPKSVQDAIPIQRIWPDGIFQVGSRFSKTFSFTDINYSIASKDDKTAMFLDYSELLNALDSGASAKITIHNRRIDKAQFEKSLLLPMREDGLDHFRREYNEMLLSKVTGTNNSVVQDRYITITVAKRNIDEARTYFSRVGTDLINHLSQLSSVGRELDAAARLQLFRDFFKGSEPAAFAFDLREHMKKGHSFKDWLCPDSMEFQKDHFRIDERWGRVLYLQDYATYIKDSMIAELCDMDRSLMLAIDVLPVPTDEAVREIQNKLLGVETNAANWQRKQNAANNFSAVLPYDMEQQRKETKEMLDDLTNRDQRMMFGLVTLVHLADTKEQLDSDTETILTVARKHLCQMSTLRWQQKDGLDTVLPYGLRKIHALRTLTTESTAVLIPFRAQEILQGGGIYYGQNAVSKNMIVADRRKLLNGNSFRLGVSGSGKSFSAKEEIVSIALSTDDDILILDPESEFGFLTEALGGEVIRVSASSDTHINALDMDKAYGDERNPLIEKSEFILSLFEQLVGAGGVSAKEKSILDRCTYDVYREYMANNYQGEVPTLKDLYQSLLKQPEPEARGLALSSELFITGSLNTFAQPTNVDTKARIIAYDIRELGEQLMPIGMLVTLDAIFNRVIQNWKKGKTTWVFADEFYLLFRYQYSADFFYKLWKRIRKYNGLVTGLTQNVEELLRSDTARLMLANSEFLILLNQSPTDRDELAGLLHISDTQLGYITNVSAGCGLIRCAGNIVPFENSFPRNTRLYQLMTTKPDEALRGVLEHHHHHH”, for which the protein production entry is “failed”.

Turning to “MPILTISGSPSAPSRSARLLGHVRAQLERAGESADHLDLRALPADALLGAQTAHPAIAEALARVAAAGVVILATPVYQAAYSGLLKTFLDLLPQSGLRDKVVLPIATGGSLAHTLAIDYALRPVLSSLAARVILPGIFAADAQIGAADDGFAVDPALQQRLDDGIERVHQAIALARHPAVAQVIVASRRTVRSAFQAHANAQATDAQQRMRCPA”, the protein production entry is listed as “failed”.

Regarding “MPINQPSGQIKLTNVSLVRLKKARKRFEVACYQNKVQDYRKGIEKDLDEVLQIHQVFMNVSKGLVANKEDLQKCFGTTNVDDVIEEIMHKGEIQLSEKERQLMLNKVNNEMLTIVSAKCINPVSKKRYPPTMIHKALQELKFSPVINKPAKLQALEAIKLLVSKQIIPIVRAKMKVKVAISEPSRQPELIEKISKLIASSPGESTKPELDPWTCTGLIDPVNYRDLMTLCDKKGTVQVLDMAVIDNTTHN”, the protein production result is listed as “failed”.

With “MPINTPENISDNTSETSPELLHFNQLNLPPALLTRLDEIGYQQMTPVQSLSLPVILNNTDAVVRADTGSGKTTAFALTLLAKLEAKSFSPQALVLCPTRELAHQVADEVRKLAKSMLNIKILTLCGGEPSRIQTNSLEHGAHVLVGTPGRVLDHLEQRNVDLSMLTTLVLDEADRMLEMGFQDSLNAIVKHIPKTRQTLLFSATYPKNIAALAEQVTTKARNIEAIQEQAKPQIEQLFYAMNNEDSAQLVMNLLGDHQPENCLVFCNTKNEVKDIFNTLRANKFSVLALHGELEQKDRDQAIIQFSNGSARVLIATDVASRGLDIAELDLVISVNMAHDLDTHTHRIGRTGRAGKEGVAITLIAEKDDYKMRLLEDTFAEPIQVKPAPALSNNRPLKANMSTIQVSGGKKDKLRPGDIVGALTKDNVLSADDIGKIKLESTFGFVAVNSRLAKHALGLINNNKIKGKKFRAKVL”, the protein production result was “failed”.

In the case of “MPIRGFHYRGDEAIYPASVVKLFYLVAALEWLQQGMIQPSAELDRALRDMIVDSSNDATGYIVDLLSGTTSGPELGDGPFKTWQFQRNIVNRYYQSLMWPELQPINVNQKTWGDGPYGRERAFYGPEFENRNKLTTNATARLLHAIAGGVAVSPSASQRMLNLLNRPFDPRSLAEDPENQVTGFLGQDLPQGSQLWSKAGWMSRVRHDAAYLEIPGLPPHLLVAFTEGKEHANNEAILPFIAQQVRQQLQPALEHHHHHH”, the protein production entry is given as “failed”.

As to “MPITSSSETFASFFNDWLCRHRQFVQQLAHLADETTIVTPIEEESLVSNFLSHYLQYYEEKSVAMSVAGDDIYDFFSPPWLSSYEKLILWIGGFKPGMVFKLITTSVNDLTSHQIDQLESIRLETKRRERDLMRRFALLQQSVGDPLLMVPFRRIGVLRLGEGEQPEMEDAMEVLKVEMIKAMKNADQLRCVTVGKVVEVLNPRQSIKLLRAAGEFYLRLRDLGV”, the protein production entry was “failed”.

As for “MPKERVDVLAYKQGLFNTREQAKRGVMAGLVVNVINGERYDKPGEKIDEATELKLKGDKLKYVSRGGLKLEKALKVFVISVDGQITLDIGASTGGFTDVMLQNGAQLVYAVDVGTNQLVWKLRQDERVCSMEQYNFRYAEPSDFERGQPTFASIDVSFISLNLILPALSKILTDGGQVVALIKPQFEAGREQIGKHGIVKDKSVHETVLETVTTFATNYGFTVKELDFSPIQGGHGNIEFLAYLEKSAQAQNQVLTKIKSIVEQAHKEFKKNEET”, the protein production result was “not failed”.
